In general, stoichiometry N refers to a count of units in the complex or per binding partner.

What all share (assay): SEC; BV-bound protein on a Superdex 200 10/300 GL column, absorbance at 280, 380 and 630 nm, calibrated with a standard protein mixture; self-association (monomer or tetramer)
(In general: Size exclusion chromatography separates by hydrodynamic size, large species first.)

In experiment [1] the target is Sandercyanin Y142A variant (Stizostedion vitreum (Canadian walleye)).
Experiment [2] concerns the target wild-type Sandercyanin (SFP) (Stizostedion vitreum (Canadian walleye)).
Experiment [3] has as its target Sandercyanin F55A variant (Stizostedion vitreum (Canadian walleye)).
For experiment [4], the target named is Sandercyanin F106A variant (Stizostedion vitreum (Canadian walleye)).
Experiment [5] has as its target Sandercyanin H108A variant (Stizostedion vitreum (Canadian walleye)).

As for “Sandercyanin Y142A variant (natural protein)”, the stoichiometry N in experiment [1] is 4.

“wild-type Sandercyanin (SFP) (natural protein)”: the stoichiometry N in experiment [2] is 4.

Consider “Sandercyanin F55A variant (natural protein)”, for which the stoichiometry N in experiment [3] stood at 4.

On to “Sandercyanin F106A variant (natural protein)”, for which, in experiment [4], the stoichiometry N was determined as 4.

Consider “Sandercyanin H108A variant (natural protein)”, for which, in experiment [5], the stoichiometry N is 4.
